Data: US20040154051A1 (SYNGENTA PARTICIPATIONS, published 2004)

Biological target: T1, NIM450 bait (first 450 amino acids of the NIM1 protein, LexA fusion) (Arabidopsis, UniProt P0A7C2 1-202; P93002 1-450)
T1 construct: The LexA fusion is stated outright only for the full-length bait
T1 sequence (looked up): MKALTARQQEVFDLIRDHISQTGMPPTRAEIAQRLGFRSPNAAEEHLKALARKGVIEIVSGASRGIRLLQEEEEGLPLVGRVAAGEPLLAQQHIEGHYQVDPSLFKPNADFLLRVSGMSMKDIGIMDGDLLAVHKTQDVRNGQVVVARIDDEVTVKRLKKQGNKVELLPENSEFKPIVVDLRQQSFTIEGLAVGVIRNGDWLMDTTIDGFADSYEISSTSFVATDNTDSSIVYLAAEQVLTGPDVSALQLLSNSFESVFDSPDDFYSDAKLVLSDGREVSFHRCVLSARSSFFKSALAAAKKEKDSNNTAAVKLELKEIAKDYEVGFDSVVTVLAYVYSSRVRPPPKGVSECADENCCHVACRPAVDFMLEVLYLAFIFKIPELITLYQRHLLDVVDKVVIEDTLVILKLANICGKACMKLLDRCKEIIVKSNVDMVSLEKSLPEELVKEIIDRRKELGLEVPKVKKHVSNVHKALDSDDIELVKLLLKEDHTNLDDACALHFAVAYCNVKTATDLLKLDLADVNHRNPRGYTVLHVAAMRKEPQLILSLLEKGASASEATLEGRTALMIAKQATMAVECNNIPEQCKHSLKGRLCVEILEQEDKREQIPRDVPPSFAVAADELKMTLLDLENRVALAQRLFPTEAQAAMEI
Test: yeast two-hybrid (LexA bait, B42 prey; Leu2 and LacZ reporters)
Method: These baits are transformed into yeast strain EGY188, which contains a low sensitivity LexA operator fused to the Leu2 gene, and appropriate tests are performed to determine whether the NIM1 fusion proteins intrinsically activate expression of the yeast reporter genes. […] The library is transformed in combination with one of the three NIM1 baits above and a plasmid containing 2 LexA operators fused to LacZ as a secondary reporter. Approximately 10⁶ transformants are analyzed in screens with each bait, and individual clones that activate both the Leu2 and LacZ reporters are isolated and sequenced by standard procedures.

B1: NI16 clone (Arabidopsis NI16 cDNA clone from the pJG4-5 library, fused to the B42 transcriptional activation domain) (other, not shown: large carriers)
chain: MNNSLKKEERVEEDNGKSDGNRGKPSTEVVRTVTEEEVDEFFKILRRVHVATRTVAKVNGGVAEGELPSKKRKRSQNLGLRNSLDCNGVRDGEFDEINRVGLQGLGLDLNCKPEPDSVSLSL
notes: also called NI16 protein
  binding result: no binding
